Laboratory results published in doi:10.1101/2022.08.09.503299.

Target: other proteasome components
Assay: SEC

- share of the BirA* signal that co-elutes with proteasome components: 60%
Substance: PSMA4-BirA*-FLAG (from UniProt P25789 2-261) (natural protein)
